From the supplement of paper PMC9170038 come the findings set out here.

The subject of series [1] is MS2 coat protein. The series is described as follows: apparent KD of MS2 coat protein; higher = weaker reporter binding. The conditions noted are these: Eterna round: R101. Here is the method: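 RNA-MaP: designed FMN/MS2 RNA switches (84 nt design region) are transcribed on-chip within common flanks and titrated with SNAP-549-labelled MS2 coat protein (about 1-3000 nM) in 100 mM Tris pH 7.5, 80 mM KCl, 4 mM MgCl2, without or with 200 uM FMN. Median apparent KD per design; activation ratio = KD,OFF / KD,ON.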

Series [2] relates to MS2 coat protein. Briefly: apparent KD of MS2 coat protein, switch ON state; designed switch direction (-1 OFF switch, 1 ON switch): 1; higher = weaker reporter binding. The note with it: FMN input: 0 or 200 uM; Eterna round: R93 (includes R88 designs). Summed up: (§1)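 Titrations with SNAP-549-labelled MS2 coat protein ran in twofold steps from 0.7 or 1.5 nM to 3 µM, each step taking 0.8–1.5 h at the start and 10–20 min toward the end. The targets were designed RNA switches transcribed on-chip from Illumina sequencing clusters, held in 100 mM Tris-HCl pH 7.5, 80 mM KCl, 4 mM MgCl2, without or with constant ligand. Apparent KD was taken per design as the median of normalised cluster binding-curve fits.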

Series [3] concerns MS2 coat protein. Briefly: apparent KD of MS2 coat protein, switch OFF state (with FMN for OFF switches, without FMN for ON switches); designed switch direction (-1 OFF switch, 1 ON switch): 1; higher = weaker reporter binding. The conditions noted are these: FMN input: 0 or 200 uM; Eterna round: R93 (includes R88 designs). A digest of the protocol: as §1

In the case of “AAAGAUUUUUAAGGAUAUCAGUGGCAAAGCCACUGAGAAGGUGAGGAUCACCCACCUACGUGACGCUGGAAACAGCGUCACGAA [#SharedSequence ExNG1 - 25] (puzzle (switch architecture): Exclusion NG 1)”, the “apparent KD of MS2 coat protein” value was found to be 12.7 nM in the series with MS2 coat protein [1] (input ligand: FMN 200 uM) and 13 nM in the series with MS2 coat protein [1] (input ligand: none).

As for “AAAGAUUUUUAAGGAUAUGACUCCGAAACGGAGUCAGAAGGUGAGGAUCACCCAUCUAGCUCAGGGUCGAAAGACCCUGAGCAA [#SharedSequence - ExNG1-15] (puzzle (switch architecture): Exclusion NG 1)”, the results for the “apparent KD of MS2 coat protein” value in the series on MS2 coat protein [1] (input ligand: FMN 200 uM) and with MS2 coat protein [1] (input ligand: none) were 78.3 nM and 43.6 nM, respectively.

With “AAAUAAUCCUCAGGAUAUGACUCCGAAACGGAGUCAGAAGGGAGGAUCACCCUCUUCAGCUCAGCGUCGAAAGACGCUGAGCAA [#SharedSequence ExNG1 - 23] (puzzle (switch architecture): Exclusion NG 1)”, the “apparent KD of MS2 coat protein” value was 11.9 nM in the series with MS2 coat protein [1] (input ligand: FMN 200 uM) and 863 nM in the series with MS2 coat protein [1] (input ligand: none).

“AAAUGAUAUCAGAAGGCGUGGACGAAACGUCCACGAGGAUAUGAGGAUCACCCAUAUCAGGUCAGCCUGCAAAGCAGGCUGACC [#SharedSequence - IExNG1: 7-2] (puzzle (switch architecture): Inverted Exclusion NG 1)”: the results for the “apparent KD of MS2 coat protein” value in the series with MS2 coat protein [1] (input ligand: FMN 200 uM) and with MS2 coat protein [1] (input ligand: none) were 126 nM and 15.6 nM, respectively.

Regarding “AAGUACAAGCAGAAGGCACAUGAGGAUCACCCAUGUCGGGCGUCCUGUAAGUGAGGAUAUGCUAAGUGACGGCCGCCUUGGCGG [Adienare] (puzzle (switch architecture): Inverted Small Loop Exclusion NG 1)”, the “apparent KD of MS2 coat protein” value is 22.6 nM in the series with MS2 coat protein [1] (input ligand: FMN 200 uM) and 383 nM in the series on MS2 coat protein [1] (input ligand: none).

With “AAUAAAAUUCUAGGAUAUGACUCCGAAACGGAGUCAGAAGGAGGAUCACCCUUUCAAAGCUCAGCGUCGAAAGACGCUGAGCAA [#SharedSequence - ExNG1-19] (puzzle (switch architecture): Exclusion NG 1)”, the “apparent KD of MS2 coat protein” value is 1160 nM in the series on MS2 coat protein [1] (input ligand: FMN 200 uM) and 155 nM in the series on MS2 coat protein [1] (input ligand: none).

As to “AAUAAUCUUUAAGGAUAUGACUCCGAAACGGAGUCAGAAGGUGAGGAUCACCCACCUAGCUCAGGGUCGAAAGACCCUGAGCAA [#SharedSequence - ExNG1-9] (puzzle (switch architecture): Exclusion NG 1)”, the “apparent KD of MS2 coat protein” value with MS2 coat protein [1] (input ligand: FMN 200 uM) was found to be 10.6 nM; in the series with MS2 coat protein [1] (input ligand: none), 9.5 nM.

With “GGCUGCGAUGUGAAGGAUAUCCGCGACUGGACAUGAGGAUCACCCAUGUAUGCUUGGAACAUGCCGGAGAAGGUCACGAAUGAUU [JR_SS002_Sub1216]”, the figures for the “apparent KD of MS2 coat protein” value in the series on MS2 coat protein [2] and in the series with MS2 coat protein [3] were 18.7 nM and 30.2 nM, respectively.

Turning to “GGGAGACAUGAGGAUCACCCAUGUGAGAAGAGGCGAGGAUAUCGAAAAAAAAAAAAAAAACGAGAAGGCGCGAGAG [salish99-SS1-005]”, the entries for the “apparent KD of MS2 coat protein” value in the series on MS2 coat protein [2] and with MS2 coat protein [3] were 63.7 nM and 28.6 nM, respectively.

Consider “GGGAGGAAGAGAGAGGAUAUCCAAAGGAAAACAUGAGGAUCACCCAUGUAAAAGGUAGGAAAUUGGGAGAAGGCUCAAGAGACGG [salish99-ss2-053]”, for which the “apparent KD of MS2 coat protein” value with MS2 coat protein [2] stood at 26.7 nM; with MS2 coat protein [3], 34.2 nM.

For the sequence “GGGCAAGAGAGAGAGGAUAUCCAAAGGAAAACAUGAGGAUCACCCAUGUAGAAGGUAGGAAAUUGGGAGAAGGCUCAAGAGAGAG [salish99-ss2-137]”, the “apparent KD of MS2 coat protein” value was 8.51 nM in the series with MS2 coat protein [2] and 12.6 nM in the series on MS2 coat protein [3].

Regarding “GGGUAAGAGAGAGAGGAUAUCCAAAGGAAAACAUGAGGAUCACCCAUGUAGAAGGUAGGAAAUUGGGAGAAGGCUCAAGAGAGAG [salish99-ss2-136]”, the “apparent KD of MS2 coat protein” value in the series with MS2 coat protein [2] stood at 29.8 nM; in the series on MS2 coat protein [3], 29.7 nM.

Turning to “GGUACAUCUAGUUAGGAUAUCAGAUGUAAGACAUGAGGAUCACCCAUGUCCUAAGAAUAGGUAACUGAGAAGGAACAGGGAGUCC [JR_SS002_Sub417]”, the entries for the “apparent KD of MS2 coat protein” value in the series on MS2 coat protein [2] and in the series with MS2 coat protein [3] were 36.5 nM and 29.8 nM, respectively.

“GGUACGGCUAGUCAGGAUAUCAGGCGUAAGACAUGAGGAUCACCCAUGUCCUAAGAACAGGUAACUGAGAAGGGACAGGGCGUCC [JR_SS002_Sub414]”: the “apparent KD of MS2 coat protein” value with MS2 coat protein [2] came out at 28.8 nM; in the series on MS2 coat protein [3], 63.1 nM.

For the sequence “GGUACUACAGAUCAGGAUAUGUUUGGGUAAACAUGAGGAUCACCCAUGUGUGCCCGAUACACAGCACAGAAGGGAUAACGUGGGA [Ditia]”, the entries for the “apparent KD of MS2 coat protein” value with MS2 coat protein [2] and with MS2 coat protein [3] were 16.2 nM and 21.4 nM, respectively.

Regarding “GUAGACAUAGUUCAGGAUAUAGGAAUAGUCACAUGAGGAUCACCCAUGUGCAUUUAUAUGCGCACUUAGAAGGGAGGUAGUUAAC [Mat - Same state - Malcolm Mod - D121]”, the results for the “apparent KD of MS2 coat protein” value in the series on MS2 coat protein [2] and with MS2 coat protein [3] were 26.3 nM and 25 nM, respectively.

Turning to “GUAUAUAUGAGGUAGGAUAUCCAAAAUAAAACAUGAGGAUCACCCAUGUAAAUAAAUAAUAAAUGGGAGAAGGACCACAUAUAUAC [Ex6 sub 3]”, the “apparent KD of MS2 coat protein” value with MS2 coat protein [2] is 16.2 nM; with MS2 coat protein [3], 34.2 nM.

Regarding “GUGAGACAUGAGGAUCACCCAUGUACGCGUCAGCAAGGAUAUGGGAAUAAAAGACAGAGACCAGAAGGUGCUGUUG [Arzaerri]”, the figures for the “apparent KD of MS2 coat protein” value in the series on MS2 coat protein [2] and in the series with MS2 coat protein [3] were 22.9 nM and 67.5 nM, respectively.

Regarding “GUGGACAUAGUUCAGGAUAUAUGAAUAGUCACAUGAGGAUCACCCAUGUCCAUUUAUAUGGGCACAUAGAAGGGAGGUAGUUAAC [Mat - Same state - Malcolm Mod - D124]”, the results for the “apparent KD of MS2 coat protein” value with MS2 coat protein [2] and in the series with MS2 coat protein [3] were 451 nM and 744 nM, respectively.

Regarding “UAAAAACAUGAGGAUCACCCAUGUGAGAACAUGGGAGGAUAUACAAAGACGAAAGUCGAAGUAGAAGGCCUAAAAU [Mat - Same State 1 - Mod - D173]”, the “apparent KD of MS2 coat protein” value with MS2 coat protein [2] worked out at 178 nM; with MS2 coat protein [3], 25.7 nM.

As to “UAAAAACAUGAGGAUCACCCAUGUGAGAACAUGGGAGGAUAUACAAGGACGAAAGUCAAGGUAGAAGGCCUAAAAU [Mat - Same State 1 - Mod - D175]”, the “apparent KD of MS2 coat protein” value with MS2 coat protein [2] stood at 160 nM; in the series on MS2 coat protein [3] it was 29.3 nM.

As for “UAAAAACAUGAGGAUCACCCAUGUGAGAACAUGGGAGGAUAUACGAGGACGAAAGUCAAAGUAGAAGGCCUAAAAG [Garnet 84]”, the “apparent KD of MS2 coat protein” value with MS2 coat protein [2] was found to be 272 nM; with MS2 coat protein [3], 101 nM.

As to “UAAUAAUAAACCAAGGAUAUGGAGUUUCCAACAUGAGGAUCACCCAUGUUUUGCUUGUAAUCGAUCCAGAAGGUGGAGCCAAAUA [JR_SS002_Sub1006]”, the “apparent KD of MS2 coat protein” value in the series with MS2 coat protein [2] came to 35.6 nM; with MS2 coat protein [3], 68.4 nM.

“UACAGACAUGAGGAUCACCCAUGUAGAAUUAUGGGAGGAUAUACAAAGACGAGAGUCAGAGUAGAAGGCCUAGGAC [salish99-ss1-166]”: the “apparent KD of MS2 coat protein” value with MS2 coat protein [2] came out at 27.3 nM; in the series on MS2 coat protein [3], 62.7 nM.

As to “UAUAGACAUGAGGAUCACCCAUGUAGAAUUAUGGGAGGAUAUACAAAGACGAGAGUCAGAGUAGAAGGCCUAGGAC [salish99-ss1-155]”, the “apparent KD of MS2 coat protein” value in the series on MS2 coat protein [2] turned out to be 22.6 nM; with MS2 coat protein [3], 49.6 nM.

Regarding “UAUCCGGCAGUGUAGGAUAUGUUGUAGUAAACAUGAGGAUCACCCAUGUGGAUUAUAUAAGAUUCACAGAAGGGCACUGCAUUGC [Laonis]”, the entries for the “apparent KD of MS2 coat protein” value with MS2 coat protein [2] and with MS2 coat protein [3] were 265 nM and 226 nM, respectively.

For the sequence “UCGUCCUCGUGCUAGGAUAUCCAUCGUAAAACAUGAGGAUCACCCAUGUAGAAAUGCGCCGACGAGGAGAAGGAGCGAUGUGGAU [Lazabima]”, the “apparent KD of MS2 coat protein” value was determined as 14.5 nM in the series on MS2 coat protein [2] and 18.5 nM with MS2 coat protein [3].

“UGAAGACAUGAGGAUCACCCAUGUGGGAAUAUGGGAGGAUAUACAAAGACGAGAGUCAGAGUAGAAGGCCUAGGAU [salish99-ss1-96]”: the “apparent KD of MS2 coat protein” value was determined as 36.7 nM in the series on MS2 coat protein [2] and 154 nM with MS2 coat protein [3].

Regarding “UGGAGACAUGAGGAUCACCCAUGUGAGAAGAGGCGAGGAUAUCGAAAGAAAGAAGAGAAACGAGAAGGCGCGAGAA [salish99-SS1-033]”, the “apparent KD of MS2 coat protein” value with MS2 coat protein [2] was found to be 13 nM; in the series on MS2 coat protein [3] it was 36.7 nM.

With “UGGAGACAUGAGGAUCACCCAUGUGAGAAGAGGCGAGGAUAUCGAAAGAAAGAAGAGAAACGAGAAGGCGCGAGAG [salish99-SS1-041]”, the “apparent KD of MS2 coat protein” value is 42.7 nM in the series with MS2 coat protein [2] and 51.2 nM with MS2 coat protein [3].

Turning to “UGGAGACAUGAGGAUCACCCAUGUGAGAAGAGGCGAGGAUAUCGAAAGAAAGAAGAGAAACGAGAAGGCGCGAGUC [salish99-SS1-046]”, the “apparent KD of MS2 coat protein” value is 28.3 nM in the series with MS2 coat protein [2] and 41 nM with MS2 coat protein [3].

For “UGUAGGAAGAGAGAGGAUAUCCAAAGGAAAACAUGAGGAUCACCCAUGUAAAAGGUAGGAAAUUGGGAGAAGGCUCAAGAGAGAG [salish99-ss2-082]”, the entries for the “apparent KD of MS2 coat protein” value with MS2 coat protein [2] and with MS2 coat protein [3] were 29 nM and 52.7 nM, respectively.

Regarding “UUAAAACAUGAGGAUCACCCAUGUAGAAAUAUGGGAGGAUAUACGAAGACGAAAGUCAAAGUAGAAGGCCUAAAUU [Mat - Same State 1 - Eli mod - D112]”, the entries for the “apparent KD of MS2 coat protein” value with MS2 coat protein [2] and in the series on MS2 coat protein [3] were 25.2 nM and 64.9 nM, respectively.

Take “UUACGUACGUAUGAGGAUAUCCAUAAUAAGACAUGAGGAUCACCCAUGUAAACAAAACAAUAAUGGGAGAAGGCAUACGUACGAA [Mat - Same state - Malcolm Mod - D135]”: the “apparent KD of MS2 coat protein” value turned out to be 23.2 nM in the series with MS2 coat protein [2] and 47.3 nM with MS2 coat protein [3].
